According to paper PMC9482650, “Quantitative fragmentomics allow affinity mapping of interactomes” (Nature Communications, 2022):
Where a chain is given by its changes, count along the chain named.

T1: DLG3_2, Q92796
T1 sequence (Q92796 221-321, limits assumed, looked up): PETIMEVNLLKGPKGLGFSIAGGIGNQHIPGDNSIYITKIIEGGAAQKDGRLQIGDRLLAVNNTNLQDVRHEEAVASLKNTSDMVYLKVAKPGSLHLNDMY

T2: SNTG1, Q9NSN8
T2 sequence (Q9NSN8 52-150, limits assumed, looked up): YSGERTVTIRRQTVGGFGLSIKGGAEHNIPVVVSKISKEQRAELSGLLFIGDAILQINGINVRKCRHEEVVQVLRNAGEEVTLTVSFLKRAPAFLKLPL

T3: PDZRN3_1, Q9UPQ7
T3 sequence (Q9UPQ7 244-349, limits assumed, looked up): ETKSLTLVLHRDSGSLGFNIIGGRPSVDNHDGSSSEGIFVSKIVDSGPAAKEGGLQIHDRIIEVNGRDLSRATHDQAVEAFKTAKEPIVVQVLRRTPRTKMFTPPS

T4: TX1BP3, O14907
T4 sequence (O14907 10-122, limits assumed, looked up): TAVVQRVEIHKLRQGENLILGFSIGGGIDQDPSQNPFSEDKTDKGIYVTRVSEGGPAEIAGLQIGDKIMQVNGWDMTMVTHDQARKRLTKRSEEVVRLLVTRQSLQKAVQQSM

T5: SNTG2, Q9NY99
T5 sequence (Q9NY99 68-166, limits assumed, looked up): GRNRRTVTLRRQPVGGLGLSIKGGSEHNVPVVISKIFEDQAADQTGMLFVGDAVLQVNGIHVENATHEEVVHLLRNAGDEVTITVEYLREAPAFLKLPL

T6: SNTA1, Q13424
T6 sequence (Q13424 82-180, limits assumed, looked up): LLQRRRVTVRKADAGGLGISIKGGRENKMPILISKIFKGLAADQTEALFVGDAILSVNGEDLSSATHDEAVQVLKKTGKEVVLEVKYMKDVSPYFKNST

T7: RADIL, Q96JH8
T7 sequence (Q96JH8 971-1071, limits assumed, looked up): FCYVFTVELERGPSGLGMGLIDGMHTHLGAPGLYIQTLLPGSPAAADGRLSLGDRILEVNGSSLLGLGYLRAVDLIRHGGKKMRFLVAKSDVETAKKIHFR

T8: APBA2_1, Q99767
T8 sequence (Q99767 563-664, limits assumed, looked up): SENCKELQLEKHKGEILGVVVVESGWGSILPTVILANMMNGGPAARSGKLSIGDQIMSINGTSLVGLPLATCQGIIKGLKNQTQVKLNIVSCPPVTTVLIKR

T9: TIAM2, Q8IVF5
T9 sequence (Q8IVF5 885-986, limits assumed, looked up): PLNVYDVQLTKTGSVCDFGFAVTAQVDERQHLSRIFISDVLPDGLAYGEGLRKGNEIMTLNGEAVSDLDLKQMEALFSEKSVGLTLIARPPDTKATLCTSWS

T10: DLG3_1, Q92796
T10 sequence (Q92796 125-227, limits assumed, looked up): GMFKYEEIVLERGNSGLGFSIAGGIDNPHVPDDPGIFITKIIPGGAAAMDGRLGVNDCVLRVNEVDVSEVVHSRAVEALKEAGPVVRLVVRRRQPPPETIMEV

T11: LIN7B, Q9HAP6
T11 sequence (Q9HAP6 88-185, limits assumed, looked up): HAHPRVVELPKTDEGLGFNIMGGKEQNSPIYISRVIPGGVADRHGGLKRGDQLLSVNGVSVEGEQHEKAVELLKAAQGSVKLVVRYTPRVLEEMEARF

T12: LIN7A, O14910
T12 sequence (O14910 103-200, limits assumed, looked up): T11 sequence (Q9HAP6 88-185, limits assumed, looked up) with A2S, I20V, V35I, D42E, Q65H, Q77K, G78D, R89K


How the values were obtained:
Test in all cases: holdup assay
Parameters in all cases: key: below the threshold = too weak to quantify, mostly under pKd 3.1 to 4
Conditions in all cases: plain residues with an end cap or a label only (N-terminal biotin on a linker: ado-ado)
MAGI1_1, Q96QZ7 = biological target: MAGI1_1, Q96QZ7
MAGI1_1, Q96QZ7, sequence (Q96QZ7 1-106): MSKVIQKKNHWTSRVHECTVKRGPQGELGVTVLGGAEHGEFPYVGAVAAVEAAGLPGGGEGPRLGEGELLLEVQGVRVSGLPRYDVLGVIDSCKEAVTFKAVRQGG

DLG3_2, Q92796 = biological target: T1, DLG3_2, Q92796
GRID2IP_2, A4D2P6 = biological target: GRID2IP_2, A4D2P6
GRID2IP_2, A4D2P6, sequence (A4D2P6 272-370): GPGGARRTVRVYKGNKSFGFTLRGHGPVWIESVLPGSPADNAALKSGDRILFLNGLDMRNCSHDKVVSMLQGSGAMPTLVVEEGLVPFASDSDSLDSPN

SNTG1, Q9NSN8 = biological target: T2, SNTG1, Q9NSN8
FRMPD4, Q14CM0 = biological target: FRMPD4, Q14CM0
FRMPD4, Q14CM0, sequence (Q14CM0 67-160): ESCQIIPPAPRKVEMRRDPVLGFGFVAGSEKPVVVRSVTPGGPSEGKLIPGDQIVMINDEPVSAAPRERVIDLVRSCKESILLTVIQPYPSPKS

TJP1_2, Q07157 = biological target: TJP1_2, Q07157
TJP1_2, Q07157, sequence (Q07157 181-274): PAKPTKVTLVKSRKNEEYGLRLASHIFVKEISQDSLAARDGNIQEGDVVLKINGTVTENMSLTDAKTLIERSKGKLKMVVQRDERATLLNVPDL

PDZRN3_1, Q9UPQ7 = biological target: T3, PDZRN3_1, Q9UPQ7
Inadl_1, Q8NI35 = biological target: Inadl_1, Q8NI35
Inadl_1, Q8NI35, sequence (Q8NI35 113-229): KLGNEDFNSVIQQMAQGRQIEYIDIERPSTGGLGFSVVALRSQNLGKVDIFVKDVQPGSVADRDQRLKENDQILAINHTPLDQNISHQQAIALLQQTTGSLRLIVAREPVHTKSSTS

TX1BP3, O14907 = biological target: T4, TX1BP3, O14907
DLG5_1, Q8TDM6 = biological target: DLG5_1, Q8TDM6
DLG5_1, Q8TDM6, sequence (Q8TDM6 617-713): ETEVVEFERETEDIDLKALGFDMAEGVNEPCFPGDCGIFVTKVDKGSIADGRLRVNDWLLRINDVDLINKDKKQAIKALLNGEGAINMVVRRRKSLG

PICK1, Q9NRD5 = biological target: PICK1, Q9NRD5
PICK1, Q9NRD5, sequence (Q9NRD5 17-115): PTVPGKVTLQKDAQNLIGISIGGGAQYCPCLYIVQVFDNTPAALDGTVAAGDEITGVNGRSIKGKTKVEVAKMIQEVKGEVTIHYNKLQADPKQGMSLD

SNTG2, Q9NY99 = biological target: T5, SNTG2, Q9NY99
SNTA1, Q13424 = biological target: T6, SNTA1, Q13424
RADIL, Q96JH8 = biological target: T7, RADIL, Q96JH8
CASK, O14936 = biological target: CASK, O14936
CASK, O14936, sequence (O14936 487-570): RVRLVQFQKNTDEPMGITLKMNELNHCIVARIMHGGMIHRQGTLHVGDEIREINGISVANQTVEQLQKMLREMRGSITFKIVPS

APBA2_1, Q99767 = biological target: T8, APBA2_1, Q99767
NHERF4_2, Q86UT5 = biological target: NHERF4_2, Q86UT5
NHERF4_2, Q86UT5, sequence (Q86UT5 220-308): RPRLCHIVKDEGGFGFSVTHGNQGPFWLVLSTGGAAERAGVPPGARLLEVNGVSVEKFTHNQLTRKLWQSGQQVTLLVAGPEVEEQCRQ

TIAM2, Q8IVF5 = biological target: T9, TIAM2, Q8IVF5
DLG3_1, Q92796 = biological target: T10, DLG3_1, Q92796
MAST2, Q6P0Q8 = biological target: MAST2, Q6P0Q8
MAST2, Q6P0Q8, sequence (Q6P0Q8 1099-1202): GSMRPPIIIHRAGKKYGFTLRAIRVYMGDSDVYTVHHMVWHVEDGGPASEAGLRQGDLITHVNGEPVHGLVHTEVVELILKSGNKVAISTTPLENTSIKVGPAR

ARHGEF12, Q9NZN5-2 = biological target: ARHGEF12, Q9NZN5-2
ARHGEF12, Q9NZN5-2, sequence (Q9NZN5 other isoform, or with tags, fused parts or gaps): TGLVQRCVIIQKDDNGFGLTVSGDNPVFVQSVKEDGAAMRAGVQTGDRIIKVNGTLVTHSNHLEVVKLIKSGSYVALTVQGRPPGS

LIN7B, Q9HAP6 = biological target: T11, LIN7B, Q9HAP6
LIN7A, O14910 = biological target: T12, LIN7A, O14910
GORASP2, Q9H8Y8 = biological target: GORASP2, Q9H8Y8

Binder | pKd (MAGI1_1, Q96QZ7) | pKd (DLG3_2, Q92796) | pKd (GRID2IP_2, A4D2P6) | pKd (SNTG1, Q9NSN8) | pKd (FRMPD4, Q14CM0) | pKd (TJP1_2, Q07157) | pKd (PDZRN3_1, Q9UPQ7) | pKd (Inadl_1, Q8NI35) | pKd (TX1BP3, O14907) | pKd (DLG5_1, Q8TDM6) | pKd (PICK1, Q9NRD5) | pKd (SNTG2, Q9NY99) | pKd (SNTA1, Q13424) | pKd (RADIL, Q96JH8) | pKd (CASK, O14936) | pKd (APBA2_1, Q99767) | pKd (NHERF4_2, Q86UT5) | pKd (TIAM2, Q8IVF5) | pKd (DLG3_1, Q92796) | pKd (MAST2, Q6P0Q8) | also measured
SLNANEVEWF [RNF130, Q86XS8] | below the threshold | 4.22 | below the threshold | below the threshold | 3.5 | 4.2 | below the threshold | 3.52 | below the threshold | below the threshold | below the threshold | below the threshold | below the threshold | 4.59 | below the threshold | 3.61 | below the threshold | 4.16 | below the threshold | 4.32 | pKd (ARHGEF12, Q9NZN5-2): below the threshold; pKd (LIN7B, Q9HAP6): 3.89; pKd (LIN7A, O14910): below the threshold; pKd (GORASP2, Q9H8Y8): 4.7
KPGKGSETVV [FZD4, Q9ULV1] | below the threshold | 4.77 | below the threshold | 3.91 | below the threshold | below the threshold | 3.71 | below the threshold | below the threshold | 3.54 | below the threshold | 4.26 | 4.6 | 3.97 | below the threshold | below the threshold | below the threshold | below the threshold | 4.28 | 4.91 | pKd (ARHGEF12, Q9NZN5-2): below the threshold; pKd (LIN7B, Q9HAP6): below the threshold; pKd (LIN7A, O14910): below the threshold; pKd (GORASP2, Q9H8Y8): 4.24
VLYPREGTEV [FOXI1, Q12951] | below the threshold | 4.59 | 4.11 | 4.13 | 3.51 | below the threshold | 4.46 | below the threshold | 3.73 | below the threshold | 4.21 | 3.6 | 4.02 | 3.74 | below the threshold | below the threshold | below the threshold | below the threshold | 4.03 | 5.27 | pKd (ARHGEF12, Q9NZN5-2): 4.08; pKd (LIN7B, Q9HAP6): below the threshold; pKd (LIN7A, O14910): below the threshold; pKd (GORASP2, Q9H8Y8): below the threshold
